Here are results for 2 molecules from US20200138979A1 (REGENTS OF THE UNIVERSITY OF MICHIGAN, published 2020).

Where no end group is shown, it is not given here.

The target of test [1] is T1, recombinant FGFR2-ECD (Met1-Glu377), extracellular domain of FGFR2c (UniProt P21802 22-377, glycosylated).
T1 construct: range 1-377; Bought construct; also called #10824-H08H-50, Sino Biological
The test can be described thus: phage display biopanning (4 rounds) against immobilized recombinant FGFR2-ECD; peptide displayed on M13 phage. On the procedure: Peptide selection was performed using a phage display library (New England Biolabs, Ph.D.-12) per manufacturer instructions. This library consists of M13 bacteriophage that expresses ˜10⁹ unique 12-amino acid sequences. 2×10¹¹ pfu consisting of 2×10⁹ unique clones with ˜100 copies each were biopanned against FGFR2-ECD immobilized in a 6-well plate at 4° C. Four rounds of biopanning were performed using a decreasing quantity (100, 80, 60, and 40 μg) of FGFR2-ECD in successive rounds to increase binding specificity. After the 4th round, 50 plaques were randomly selected for DNA preparation and sequence analysis. We used an ABI Automatic DNA Analyzer (Applied Biosystems) with primer 5′-[…] TTA GCG TAA CG-3′ (−96 gIII sequencing primer, New England Biolabs) that corresponds to the pIII gene sequence of the M13 phage.

The target in test [2] is FGFR2c (fibroblast growth factor receptor 2, isoform IIIc) stably expressed on QhTERT cells (UniProt P21802). The test can be described thus: flow cytometry on cells overexpressing FGFR2 (same experiment as kd=68 nM, printed with more digits). Background: In flow cytometry, cells or beads pass a laser one at a time.
Test [3] has the same target. The experiment in a line: flow cytometry time course, 5 µM peptide on QhTERT cells expressing FGFR2c.
Test [4] shares this target. The test can be described thus: flow cytometry, apparent dissociation constant on QhTERT cells expressing FGFR2c, 0-200 nM peptide, 4° C.
The target is the same in test [5]. The experiment in a line: flow cytometry time course, 5 µM peptide on QhTERT cells expressing FGFR2c, first order kinetics fit.

Sequence of FGFR2c (fibroblast growth factor receptor 2, isoform IIIc) stably expressed on QhTERT cells (P21802 22-821): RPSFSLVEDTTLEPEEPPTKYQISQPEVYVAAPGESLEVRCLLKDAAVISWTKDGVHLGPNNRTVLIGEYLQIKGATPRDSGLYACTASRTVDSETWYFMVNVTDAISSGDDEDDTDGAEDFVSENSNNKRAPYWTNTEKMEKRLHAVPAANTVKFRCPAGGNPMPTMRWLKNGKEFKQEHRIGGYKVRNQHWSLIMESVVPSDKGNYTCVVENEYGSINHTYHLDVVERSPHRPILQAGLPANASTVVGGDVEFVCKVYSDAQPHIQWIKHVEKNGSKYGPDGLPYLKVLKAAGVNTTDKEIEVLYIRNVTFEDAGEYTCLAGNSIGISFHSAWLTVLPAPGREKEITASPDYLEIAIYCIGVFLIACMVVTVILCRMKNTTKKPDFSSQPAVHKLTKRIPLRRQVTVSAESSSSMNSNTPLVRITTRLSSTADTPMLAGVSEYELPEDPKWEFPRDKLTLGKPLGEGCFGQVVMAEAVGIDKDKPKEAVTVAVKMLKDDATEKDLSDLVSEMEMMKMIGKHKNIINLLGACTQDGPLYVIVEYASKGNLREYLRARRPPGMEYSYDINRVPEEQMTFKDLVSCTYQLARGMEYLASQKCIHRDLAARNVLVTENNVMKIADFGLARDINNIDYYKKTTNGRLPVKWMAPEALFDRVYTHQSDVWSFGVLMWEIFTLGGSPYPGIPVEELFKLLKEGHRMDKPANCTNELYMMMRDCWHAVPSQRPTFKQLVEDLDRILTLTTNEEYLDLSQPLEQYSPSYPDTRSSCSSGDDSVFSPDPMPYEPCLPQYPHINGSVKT
T1 sequence (P21802 22-377 limits assumed): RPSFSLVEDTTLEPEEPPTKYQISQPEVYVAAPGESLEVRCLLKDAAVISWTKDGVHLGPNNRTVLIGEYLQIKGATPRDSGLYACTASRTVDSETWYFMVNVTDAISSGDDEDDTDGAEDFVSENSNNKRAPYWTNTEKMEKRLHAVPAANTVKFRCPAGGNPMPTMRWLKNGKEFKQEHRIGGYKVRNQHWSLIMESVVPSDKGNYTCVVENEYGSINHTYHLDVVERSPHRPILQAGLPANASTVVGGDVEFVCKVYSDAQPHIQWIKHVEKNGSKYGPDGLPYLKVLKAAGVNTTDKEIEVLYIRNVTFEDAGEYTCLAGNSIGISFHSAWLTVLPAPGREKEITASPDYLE

B1: SRR* peptide SRRPASFRTARE, unlabeled (peptide)
peptide: SRRPASFRTARE
notes: also called unlabeled SRR*; SSR peptide
In the case of B1, the binding result in test [1] is on record as “binds”.

B2: SRR*-Cy5.5 (peptide … with Cy5.5 attached via a C-terminal GGGSK linker) (peptide)
peptide: SRRPASFRTAREGGGSK(Cy5.5)-NH2
With B2, the Kd is 67.9 nM in test [2] and 68 nM in test [4]. Further, the time scale for onset of binding in test [3] came to 6.2 min. Further, the apparent association time constant k in test [5] stood at 0.16 min⁻¹.
